Laboratory results published in US20220089761A1.

Target: CD20 receptor on WIL2-S cell line (human) (UniProt P11836)
Assay: flow cytometry on WIL2-S cells, detection with anti-human Fc-PE

Chain of UniProt P11836 (P11836 whole entry): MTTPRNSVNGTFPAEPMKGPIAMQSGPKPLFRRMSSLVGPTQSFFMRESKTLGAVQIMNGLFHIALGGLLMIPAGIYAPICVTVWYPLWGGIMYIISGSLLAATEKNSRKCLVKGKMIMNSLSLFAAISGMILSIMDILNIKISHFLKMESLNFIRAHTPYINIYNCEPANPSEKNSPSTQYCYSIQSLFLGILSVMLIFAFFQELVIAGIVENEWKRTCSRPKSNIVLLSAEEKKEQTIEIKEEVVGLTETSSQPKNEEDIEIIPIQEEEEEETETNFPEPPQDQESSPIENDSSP

Substance: MabThera (Rituximab) (antibody)
- EC50 (read off the curve): 1 µg/mL
